From paper PMC3651084

Target: recombinant human HER3-Fc chimera (UniProt P21860)
Assay: flow cytometry on staphylococcal-displayed mutants
Conditions: parent: est. 83; read off a plot

UniProt P21860, sequence (P21860 20-643, change not shown): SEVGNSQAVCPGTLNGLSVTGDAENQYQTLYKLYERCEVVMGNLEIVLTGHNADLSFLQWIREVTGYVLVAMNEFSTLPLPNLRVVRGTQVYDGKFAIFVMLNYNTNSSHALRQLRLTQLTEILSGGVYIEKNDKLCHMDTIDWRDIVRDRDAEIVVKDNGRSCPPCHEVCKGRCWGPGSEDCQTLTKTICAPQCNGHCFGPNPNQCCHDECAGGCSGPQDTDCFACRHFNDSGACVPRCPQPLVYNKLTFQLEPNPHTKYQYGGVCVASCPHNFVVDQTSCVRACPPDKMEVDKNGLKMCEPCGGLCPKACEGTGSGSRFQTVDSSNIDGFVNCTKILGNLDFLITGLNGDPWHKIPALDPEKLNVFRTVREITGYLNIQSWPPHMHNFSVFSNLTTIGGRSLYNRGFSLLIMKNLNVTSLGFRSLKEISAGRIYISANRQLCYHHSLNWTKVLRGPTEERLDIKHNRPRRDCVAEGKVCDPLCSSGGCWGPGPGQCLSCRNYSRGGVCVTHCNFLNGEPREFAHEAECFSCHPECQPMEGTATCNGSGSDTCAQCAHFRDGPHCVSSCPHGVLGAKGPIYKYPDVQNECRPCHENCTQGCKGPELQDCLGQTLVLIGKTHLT

HER3-binding Affibody molecule Z05416, displayed on S. carnosus A28L
response: 87

HER3-binding Affibody molecule Z05416, displayed on S. carnosus F14A
response: 72

HER3-binding Affibody molecule Z05416, displayed on S. carnosus K9A
response: 43

HER3-binding Affibody molecule Z05416, displayed on S. carnosus K27A
response: 100

HER3-binding Affibody molecule Z05416, displayed on S. carnosus Q18A
response: 71

HER3-binding Affibody molecule Z05416, displayed on S. carnosus Q35A
response: 92

HER3-binding Affibody molecule Z05416, displayed on S. carnosus R25A
response: 91

HER3-binding Affibody molecule Z05416, displayed on S. carnosus S32A
response: 93

HER3-binding Affibody molecule Z05416, displayed on S. carnosus T11A
response: 86

HER3-binding Affibody molecule Z05416, displayed on S. carnosus V24A
response: 78

HER3-binding Affibody molecule Z05416, displayed on S. carnosus W17A
response: 10

HER3-binding Affibody molecule Z05416, displayed on S. carnosus Y10A
response: 10

HER3-binding Affibody molecule Z05416, displayed on S. carnosus Y13A
response: 66
